Data on one substance can be found in article PMC6925134.

For experiment [1], the target named is RNF208 (UniProt Q9H0X6). The experiment is described as follows: anti-Flag co-IP, Myc immunoblot. Conditions: reference: wild type; sites S39. A general note: A western blot detects proteins with antibodies after separation by electrophoresis.
Experiment [2] addresses RNF208 (UniProt Q9H0X6). The experiment is described as follows: anti-Flag co-IP, immunoblot. Conditions: reference: wild type; sites S39.

With Vimentin (from UniProt P08670) S39A, the figures for the “binding against the reference” value in the experiment with RNF208 [1] and with RNF208 [2] were “lost” and “weaker”, respectively.
